Assay results reported in patent US20180009908.
Substitutions are numbered along the chain they refer to. Numbers in names are those of the source.

Columns and labels:
[1] = target: T1, HA-tagged human IgG1 Fc portion with CH3 mutations K360D, D399M, Y407A; test: UPLC SEC of protein G-purified one-arm antibody co-expressed in HEK293F
T1 chain: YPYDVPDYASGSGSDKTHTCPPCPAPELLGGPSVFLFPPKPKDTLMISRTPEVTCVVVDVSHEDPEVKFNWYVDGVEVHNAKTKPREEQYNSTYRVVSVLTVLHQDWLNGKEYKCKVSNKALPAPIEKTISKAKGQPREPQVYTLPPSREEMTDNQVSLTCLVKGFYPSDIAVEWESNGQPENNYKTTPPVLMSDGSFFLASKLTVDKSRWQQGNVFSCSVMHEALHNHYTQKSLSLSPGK

[2] = target: matuzumab HC_7.8_A + matuzumab LC (IgG1); test: LCMS, IgG1 BsAb co-expression; HCA/HCB heterodimer carrying two LC1
[3] = target: matuzumab HC_7.8_A + matuzumab LC (IgG1); test: LCMS, IgG1 BsAb co-expression in HEK293F
[4] = target: matuzumab HC_7.8_A + matuzumab LC (IgG1); test: LCMS, IgG1 BsAb co-expression; HCA/HCB heterodimer carrying two LC2
[5] = LCMS, IgG1 BsAb co-expression; HCA (MetMAb) homodimer species
[6] = target: BHA10 HC_7.8_B + BHA10 LC (IgG1); test: LCMS, IgG1 BsAb co-expression; HCA/HCB heterodimer carrying two LC1
[7] = target: matuzumab HC_7.8_B + matuzumab LC (IgG1); test: as above
[8] = target: BHA10 HC_7.8_B + BHA10 LC (IgG1); test: LCMS, IgG1 BsAb co-expression in HEK293F
[9] = target: matuzumab HC_7.8_B + matuzumab LC (IgG1); test: LCMS, IgG1 BsAb co-expression in HEK293F
[10] = LCMS, IgG1 BsAb co-expression; HCA homodimer species
[11] = target: BHA10 HC_7.8_B + BHA10 LC (IgG1); test: LCMS, IgG1 BsAb co-expression; HCA/HCB heterodimer carrying two LC2
[12] = target: matuzumab HC_7.8_B + matuzumab LC (IgG1); test: as above
[13] = target: matuzumab HC_7.8.60_B + matuzumab LC (IgG1); test: LCMS, IgG1 BsAb co-expression; HCA/HCB heterodimer carrying two LC1
[14] = target: BHA10 HC_7.8.60_B + BHA10 LC (IgG1); test: as above
[15] = target: matuzumab HC_7.8.60_B + matuzumab LC (IgG1); test: LCMS, IgG1 BsAb co-expression in HEK293F
[16] = target: BHA10 HC_7.8.60_B + BHA10 LC (IgG1); test: LCMS, IgG1 BsAb co-expression in HEK293F
[17] = target: matuzumab HC_7.8.60_B + matuzumab LC (IgG1); test: LCMS, IgG1 BsAb co-expression; HCA/HCB heterodimer carrying two LC2
[18] = target: BHA10 HC_7.8.60_B + BHA10 LC (IgG1); test: as above
[19] = target: BHA10 HC_20.8.37_B + BHA10 LC (IgG1); test: LCMS, IgG1 BsAb co-expression; HCA/HCB heterodimer carrying two LC1
[20] = target: matuzumab HC_20.8_B + matuzumab LC (IgG1); test: as above
[21] = target: BHA10 HC_20.8_B + BHA10 LC (IgG1); test: as above
[22] = target: BHA10 HC_20.8.34_B + BHA10 LC (IgG1); test: as above
[23] = target: matuzumab HC_20.8.37_B + matuzumab LC (IgG1); test: as above
[24] = target: matuzumab HC_20.8.34_B + matuzumab LC (IgG1); test: as above
[25] = target: BHA10 HC_20.8.37_B + BHA10 LC (IgG1); test: LCMS, IgG1 BsAb co-expression in HEK293F
[26] = target: matuzumab HC_20.8_B + matuzumab LC (IgG1); test: LCMS, IgG1 BsAb co-expression in HEK293F
[27] = target: BHA10 HC_20.8_B + BHA10 LC (IgG1); test: LCMS, IgG1 BsAb co-expression in HEK293F
[28] = target: BHA10 HC_20.8.34_B + BHA10 LC (IgG1); test: LCMS, IgG1 BsAb co-expression in HEK293F
[29] = target: matuzumab HC_20.8.37_B + matuzumab LC (IgG1); test: LCMS, IgG1 BsAb co-expression in HEK293F
[30] = target: matuzumab HC_20.8.34_B + matuzumab LC (IgG1); test: LCMS, IgG1 BsAb co-expression in HEK293F
[31] = target: BHA10 HC_20.8.37_B + BHA10 LC (IgG1); test: LCMS, IgG1 BsAb co-expression; HCA/HCB heterodimer carrying two LC2
[32] = target: matuzumab HC_20.8_B + matuzumab LC (IgG1); test: as above
[33] = target: BHA10 HC_20.8_B + BHA10 LC (IgG1); test: as above
[34] = target: BHA10 HC_20.8.34_B + BHA10 LC (IgG1); test: as above
[35] = target: matuzumab HC_20.8.37_B + matuzumab LC (IgG1); test: as above
[36] = target: matuzumab HC_20.8.34_B + matuzumab LC (IgG1); test: as above
[37] = pertuzumab × matuzumab bispecific

B1: anti-c-Met 5D5 VH-human IgG1 HC with CH3 mutations E345R, Q347R, T366V, K409V, with 5D5 light chain (protein)
chain 1: EVQLVESGGGLVQPGGSLRLSCAASGYTFTSYWLHWVRQAPGKGLEWVGMIDPSNSDTRFNPNFKDRFTISADTSKNTAYLQMNSLRAEDTAVYYCATYRSYVTPLDYWGQGTLVTVSSASTKGPSVFPLAPSSKSTSGGTAALGCLVKDYFPEPVTVSWNSGALTSGVHTFPAVLQSSGLYSLSSVVTVPSSSLGTQTYICNVNHKPSNTKVDKRVEPKSCDKTHTCPPCPAPELLGGPSVFLFPPKPKDTLMISRTPEVTCVVVDVSHEDPEVKFNWYVDGVEVHNAKTKPREEQYNSTYRVVSVLTVLHQDWLNGKEYKCKVSNKALPAPIEKTISKAKGQPRRPRVYTLPPSREEMTKNQVSLVCLVKGFYPSDIAVEWESNGQPENNYKTTPPVLDSDGSFFLYSVLTVDKSRWQQGNVFSCSVMHEALHNHYTQKSLSLSPGK
chain 2: DIQMTQSPSSLSASVGDRVTITCKSSQSLLYTSSQKNYLAWYQQKPGKAPKLLIYWASTRESGVPSRFSGSGSGTDFTLTISSLQPEDFATYYCQQYYAYPWTFGQGTKVEIKRTVAAPSVFIFPPSDEQLKSGTASVVCLLNNFYPREAKVQWKVDNALQSGNSQESVTEQDSKDSTYSLSSTLTLSKADYEKHKVYACEVTHQGLSSPVTKSFNRGEC
Protein B1 has a % heterodimer (UPLC) [1] of 93.3%.

B2: MetMAb HC_7.8_B + MetMAb LC (IgG1) (protein)
chain 1: B1 chain 1 with Q39K, N63E, H170A, F172G, R216K, N299Q, R347E, R349Q
chain 2: RIQMTQSPSSLSASVGDRVTITCKSSQSLLYTSSQKNYLAWYQDKPGKAPKLLIYWASTRESGVPSRFSGSGSGTDFTLTISSLQPEDFATYYCQQYYAYPWTFGQGTKVEIKGQPKAAPSVTLFPPSSEELQANKATLVCYISDFYPGAVTVAWKADSSPVKAGVETTTPSKQSNNKYAAWSYLSLTPEQWKSHRSYSCQVTHEGSTVEKTVAPTEC
B2 showed a % AB (2x LC1) (incorrect assembly) [2] of 0%, a % AB (LC1/LC2) (correct IgG BsAb assembly) [3] of 100% and a % AB (2x LC2) (incorrect assembly) [4] of 0%. It also gave a % AA Homodimer (incorrect assembly) [5] of 0%.

B3: pertuzumab HC_7.8_A + pertuzumab LC (IgG1) (protein)
chain 1: EVQLVESGGGLVQPGGSLRLSCAASGFTFTDYTMDWVRKAPGKGLEWVADVNPNSGGSIYNQEFKGRFTLSVDRSKNTLYLQMNSLRAEDTAVYYCARNLGPSFYFDYWGQGTLVTVSSASTKGPSVFPLAPSSKSTSGGTAALGCLVKDYFPEPVTVSWNSGALTSGVATGPAVLQSSGLYSLSSVVTVPSSSLGTQTYICNVNHKPSNTKVDKKVEPKSCDKTHTCPPCPAPELLGGPSVFLFPPKPKDTLMISRTPEVTCVVVDVSHEDPEVKFNWYVDGVEVHNAKTKPREEQYQSTYRVVSVLTVLHQDWLNGKEYKCKVSNKALPAPIEKTISKAKGQPREPQVYTLPPSREEMTKNQVSLTCLVKGFYPSDIAVEWESNGQPENNYKTTPPVLMSDGSFFLASKLTVDKSRWQQGNVFSCSVMHEALHNHYTQKSLSLSPGK
chain 2: RIQMTQSPSSLSASVGDRVTITCKASQDVSIGVAWYQDKPGKAPKLLIYSASYRYTGVPSRFSGSGSGTDFTLTISSLQPEDFATYYCQQYYIYPYTFGQGTKVEIKGQPKAAPSVTLFPPSSEELQANKATLVCYISDFYPGAVTVAWKADSSPVKAGVETTTPSKQSNNKYAAWSYLSLTPEQWKSHRSYSCQVTHEGSTVEKTVAPTEC
Protein B3 has a % AB (2x LC1) (incorrect assembly) [6] of 15.6%, a % AB (2x LC1) (incorrect assembly) [7] of 0% and a % AB (LC1/LC2) (correct IgG BsAb assembly) [8] of 69.3%. For the same protein, the % AB (LC1/LC2) (correct IgG BsAb assembly) [9] was 95.4%, the % AA Homodimer (incorrect assembly) ([10]; pertuzumab × BHA10 bispecific) was 0% and the % AA Homodimer (incorrect assembly) [10, 37] was 0.5%. It also gave a % AB (2x LC2) (incorrect assembly) [11] of 0% and a % AB (2x LC2) (incorrect assembly) [12] of 1.2%.

B4: pertuzumab HC_7.8.60_A + pertuzumab LC (IgG1) (protein)
chain 1: B3 chain 1 with K362D
chain 2: B3 chain 2
B4 gave a % AB (2x LC1) (incorrect assembly) [13] of 0%, a % AB (2x LC1) (incorrect assembly) [14] of 0% and a % AB (LC1/LC2) (correct IgG BsAb assembly) [15] of 98.1%. For the same protein, the % AB (LC1/LC2) (correct IgG BsAb assembly) [16] was 95.2%, the % AA Homodimer (incorrect assembly) ([10]; pertuzumab × BHA10 bispecific) was 0.7% and the % AA Homodimer (incorrect assembly) [10, 37] was 0.6%. For the same protein, the % AB (2x LC2) (incorrect assembly) [17] was 0% and the % AB (2x LC2) (incorrect assembly) [18] was 2.5%.

B5: pertuzumab HC_20.8.26_A + pertuzumab LC (IgG1) (protein)
chain 1: B3 chain 1 with Y351S, T368M, K372Y, M401D, A409Y, K411V
chain 2: B3 chain 2
For B5, the % AB (2x LC1) (incorrect assembly) [19] was 7.5%, the % AB (2x LC1) (incorrect assembly) [20] was 0% and the % AB (2x LC1) (incorrect assembly) [21] was 0%. The % AB (2x LC1) (incorrect assembly) [22] was 9.7%, the % AB (2x LC1) (incorrect assembly) [23] was 0% and the % AB (2x LC1) (incorrect assembly) [24] was 0%. The % AB (LC1/LC2) (correct IgG BsAb assembly) [25] was 89.6%, the % AB (LC1/LC2) (correct IgG BsAb assembly) [26] was 95.2% and the % AB (LC1/LC2) (correct IgG BsAb assembly) [27] was 96.9%. It also gave a % AB (LC1/LC2) (correct IgG BsAb assembly) [28] of 90.3%, a % AB (LC1/LC2) (correct IgG BsAb assembly) [29] of 97.6% and a % AB (LC1/LC2) (correct IgG BsAb assembly) [30] of 96.9%. For the same protein, the % AB (2x LC2) (incorrect assembly) [31] was 0%, the % AB (2x LC2) (incorrect assembly) [32] was 0% and the % AB (2x LC2) (incorrect assembly) [33] was 0%. The % AB (2x LC2) (incorrect assembly) [34] was 0%, the % AB (2x LC2) (incorrect assembly) [35] was 0% and the % AB (2x LC2) (incorrect assembly) [36] was 0%.
